The values that follow come from patent publication US20220017612A1 (TILOS THERAPEUTICS, published 2022).

In assay [1] the target is T1, fusion protein of a human IgG1 Fc domain and human LAP-TGFβ1 (human, UniProt P01137 30-390).
T1 construct: printed both as Fc-huB1 and LAP-TGFβ-Fc; also called Fc-huB1; Fc-human LAP
The assay is described as follows: BLI, 2:1 model, component 2. As to the method:
A streptavidin-functionalized tip was equilibrated in binding buffer (10 mM sodium phosphate, 150 mM sodium chloride, 1% (w/v) bovine serum albumin, 0.05% (w/v) sodium azide, pH 7.4) and dipped in a 5 μg/mL solution of biotinylated antibody (i.e., 20E6_H0.2aL1_hIgG1, murine 16F4, or MHG8, a GARP-specific murine IgG2a described in Lienart et al. Science 2018; 362:952-956) in binding buffer for 30 seconds to load the tip with antibody. The antibody-loaded tip was then washed in binding buffer and placed in a solution containing 0-24 nM of a fusion protein containing a human IgG1 Fc domain fused to either human LAP-TGFβ1, the soluble GARP-LAP-TGFβ1 complex, or the soluble ECR3E-LAP-TGFβ1 complex. The antigen was allowed to bind to antibody for 5 minutes (association phase), and then the tip was moved to binding buffer (dissociation phase). The binding and dissociation data for 16F4 and MHG8 were well-fit by a 1:1 binding model. The association and dissociation phases for 20E6_H0.2aL1_hIgG1 antibody were fit to a 2:1 heterogenous ligand binding model to determine the binding rate constants.
As shown in FIG. 24 and Table 21, the 20E6_H0.2aL1_hIgG1 antibody bound to free LAP-TGFβ1 and the soluble GARP-LAP-TGFβ1 complex with nanomolar affinity, but not to the ECR3E-LAP-TGFβ1 complex. As expected, the anti-GARP antibody (MHG8) bound to the GARP-LAP-TGFβ1 complex, but not to free LAP-TGFβ1 or the ECR3E-LAP-TGFβ1 complex. 16F4 bound tightly to all three constructs.
(Biolayer interferometry detects binding as a change in optical thickness at a sensor tip.)

Assay [2] concerns the target T2, human LAP-TGFβ2 overexpressed on HT1080 cells (human, UniProt P61812 21-414).
T2 construct: also called HT1080-huB2
T2 sequence: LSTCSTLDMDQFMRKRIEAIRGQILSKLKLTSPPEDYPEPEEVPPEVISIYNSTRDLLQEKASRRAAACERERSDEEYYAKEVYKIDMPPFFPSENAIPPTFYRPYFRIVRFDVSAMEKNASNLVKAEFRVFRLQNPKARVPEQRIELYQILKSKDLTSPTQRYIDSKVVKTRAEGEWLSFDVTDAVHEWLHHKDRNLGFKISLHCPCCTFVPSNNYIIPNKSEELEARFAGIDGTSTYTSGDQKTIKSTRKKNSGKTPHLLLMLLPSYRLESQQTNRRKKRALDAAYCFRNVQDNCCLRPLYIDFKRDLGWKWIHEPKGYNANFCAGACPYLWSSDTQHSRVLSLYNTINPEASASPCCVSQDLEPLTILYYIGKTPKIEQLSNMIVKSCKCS
The assay is described as follows: flow cytometry titration, HT1080-huB2 cells. The protocol: (§1) This Example describes the binding of anti-LAP antibodies to LAP-TGFβ isoforms and LAP-TGFβ variants. In addition to antibodies 28G11_hIgG1, 22F9_hIgG1, and 20E6_hIgG1, anti-LAP antibodies 17G8_hIgG1, 24E3_hIgG1, and 2C9_(hyb) were also tested in this experiment. Briefly, 4×10⁵ each of (a) HT1080 cells, (b) HT1080 cells overexpressing human LAP-TGFβ1, (c) HT1080 cells overexpressing human LAP-TGFβ2, (d) HT1080 cells overexpressing human LAP-TGFβ3, (e) HT1080 cells overexpressing murine LAP-TGFβ1, (f) P3U1 cells, (g) P3U1 cells overexpressing LAP-TGFβ1 and GARP, and (h) P3U1 cells overexpressing LAP-TGFβ1 and LRRC33 were cultured in 96-well plates. The plates were centrifuged for 5 min at 1,500 rpm, liquid was removed, and cells were resuspended with 200 μL FACS buffer. The plates were centrifuged again, diluted primary antibody was added to each well, and the plates were incubated on ice for 20 minutes, followed by centrifugation. The cells were resuspended in 200 μL FACS buffer, centrifuged again, and resuspended in 50 μL diluted secondary antibody (Alexa647-anti-Human IgG or APC-anti-Mouse IgG). The plates were incubated on ice for 20 minutes in the dark, washed twice with 200 μL FACS buffer, and cells from each well (in 200 μL FACS buffer) were read on the Attune NXT instrument.
For orientation: Flow cytometry measures light scatter and fluorescence of single cells or particles in a stream.

Assay [3] deals with T3, human LAP-TGFβ1 with a Y74T mutation on HT1080 cells (human, UniProt P01137 30-390).
T3 construct: also called HT1080-Y74T; open conformation
As to the kind of experiment: flow cytometry, HT1080 cells; grey bar = no anti-LAP antibody. As to the method:
as §1
(§2) Cells were processed for flow cytometry in the same manner described above for the isoform-specific binding experiments.

Assay [4] concerns the target T4, human-chicken LAP-TGFβ1 chimera #2.2 on HT1080 cells (human/chicken chimera, UniProt P01137 30-390).
T4 construct: also called HT1080-ch2.2
Described as above. The protocol:
as §1, §2

Assay [5] deals with T5, human LAP-TGFβ1 with K27C and Y75C mutations on HT1080 cells (human, UniProt P01137 30-390).
T5 construct: also called closed conformation
The assay is described as above. The protocol: as §1, §2

Assay [6] has as its target T6, LAP-only variant of human TGFβ1 (empty LAP) on HT1080 cells (human, UniProt P01137 30-277).
T6 construct: LAP without the mature cytokine; also called HT1080-emptyLAP; LAP-only construct
The assay is described as above. The protocol: as §1, §2

The target in assay [7] is T7, human-chicken LAP-TGFβ1 chimera #2.3 on HT1080 cells (human/chicken chimera, UniProt P01137 30-390).
T7 construct: also called HT1080-ch2.3
Described as above. As to the method:
as §1, §2

T1 sequence (P01137 30-390 limits assumed): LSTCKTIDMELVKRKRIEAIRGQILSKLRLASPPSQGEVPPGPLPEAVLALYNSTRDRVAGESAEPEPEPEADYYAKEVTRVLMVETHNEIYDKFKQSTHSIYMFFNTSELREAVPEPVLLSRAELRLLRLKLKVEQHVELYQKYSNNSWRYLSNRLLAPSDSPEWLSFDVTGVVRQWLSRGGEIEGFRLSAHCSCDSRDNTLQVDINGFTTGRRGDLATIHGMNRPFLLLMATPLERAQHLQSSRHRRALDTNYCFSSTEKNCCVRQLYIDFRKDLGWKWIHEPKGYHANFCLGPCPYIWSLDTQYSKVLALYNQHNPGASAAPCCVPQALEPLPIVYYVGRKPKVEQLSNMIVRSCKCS
T5 sequence (P01137 other isoform, or with tags, fused parts or gaps K27C Y75C K27C Y75C): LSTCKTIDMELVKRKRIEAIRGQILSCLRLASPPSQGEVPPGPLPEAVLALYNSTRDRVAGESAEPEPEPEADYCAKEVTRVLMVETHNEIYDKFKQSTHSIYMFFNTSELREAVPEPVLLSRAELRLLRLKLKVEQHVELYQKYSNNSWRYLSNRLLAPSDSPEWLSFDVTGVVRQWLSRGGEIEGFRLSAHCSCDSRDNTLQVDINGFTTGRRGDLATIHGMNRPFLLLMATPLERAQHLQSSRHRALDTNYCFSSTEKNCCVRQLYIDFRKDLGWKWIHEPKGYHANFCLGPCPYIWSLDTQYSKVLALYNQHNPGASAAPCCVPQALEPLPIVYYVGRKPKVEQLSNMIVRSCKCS
T3 sequence (P01137 other isoform, or with tags, fused parts or gaps Y74T Y74T): as the sequence (P01137 other isoform, or with tags, fused parts or gaps K27C Y75C K27C Y75C) above, with C27K, Y74T, C75Y counted along it
T6 sequence (P01137 30-277, change not shown): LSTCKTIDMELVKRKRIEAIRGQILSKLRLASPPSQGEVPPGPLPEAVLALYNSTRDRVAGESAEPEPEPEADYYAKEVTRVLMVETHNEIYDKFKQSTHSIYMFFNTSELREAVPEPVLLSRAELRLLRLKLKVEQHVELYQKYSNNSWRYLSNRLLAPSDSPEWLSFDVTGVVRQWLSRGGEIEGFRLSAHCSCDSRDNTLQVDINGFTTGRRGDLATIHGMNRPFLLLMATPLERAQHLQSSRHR
T7 sequence (P01137 other isoform, or with tags, fused parts or gaps mutant): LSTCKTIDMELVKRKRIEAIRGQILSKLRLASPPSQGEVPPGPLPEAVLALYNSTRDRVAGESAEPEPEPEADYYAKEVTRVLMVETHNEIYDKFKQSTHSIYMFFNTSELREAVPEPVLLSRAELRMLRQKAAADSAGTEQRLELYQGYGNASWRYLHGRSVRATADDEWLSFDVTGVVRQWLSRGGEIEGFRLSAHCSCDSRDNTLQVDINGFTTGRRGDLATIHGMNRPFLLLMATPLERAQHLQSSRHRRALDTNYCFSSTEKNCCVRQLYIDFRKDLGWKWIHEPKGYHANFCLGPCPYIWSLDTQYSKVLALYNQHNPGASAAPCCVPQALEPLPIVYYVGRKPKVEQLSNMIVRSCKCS
T4 sequence (P01137 other isoform, or with tags, fused parts or gaps mutant): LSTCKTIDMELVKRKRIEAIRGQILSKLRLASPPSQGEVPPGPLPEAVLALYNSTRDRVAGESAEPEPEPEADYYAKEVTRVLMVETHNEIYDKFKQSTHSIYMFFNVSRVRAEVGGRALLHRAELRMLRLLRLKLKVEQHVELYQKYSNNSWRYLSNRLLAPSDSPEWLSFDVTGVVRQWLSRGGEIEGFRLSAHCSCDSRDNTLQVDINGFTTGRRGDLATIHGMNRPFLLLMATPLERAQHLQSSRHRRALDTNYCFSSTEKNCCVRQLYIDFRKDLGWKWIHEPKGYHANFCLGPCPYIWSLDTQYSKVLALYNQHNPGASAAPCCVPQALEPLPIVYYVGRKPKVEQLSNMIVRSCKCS

B1: 20E6_H0.2aL1_hIgG1 (antibody)
heavy: not shown
light: DIQMTQSPSSLSASVGDRVTITCRASQDITNYLNWYQQKPGKAVKLLIYYTSRLHSGVPSRFSGSGSGTDYTLTISSLQPEDFATYFCQQGDTLPWTFGQGTKLEIKRTVAAPSVFIFPPSDEQLKSGTASVVCLLNNFYPREAKVQWKVDNALQSGNSQESVTEQDSKDSTYSLSSTLTLSKADYEKHKVYACEVTHQGLSSPVTKSFNRGEC
notes: also called 20E6_H0.2aL1_IgG1; humanized 20E6
As for B1, in assay [1], the Kd turned out to be 960 pM, the koff amounted to 0.00092 s⁻¹ and the kon stood at 960000 M⁻¹ s⁻¹.

B2: 22F9_hIgG1 (antibody, V domains shown)
VH: QVQLQQPGAELVKPGASVKLSCKASGYTFTSYWMHWVKQRPGQGLEWIGMIHPNSGSTNYNEKFKSKATLTVDKSSSTAYMQLSSLTSEDSAVYYCAYYDYDGFFDVWGTGTTVTVSS
VL: DIVLTQSPASLDVSLGQRATISCRASKSVSTSGYSYMHWYQQKSGQPPKLLIYLASNLESGVPARFSGSGSGTHFTLNIHPVEEEDAATYYCQHSRELPYTFGGGTKLEIK
In the case of B2, the binding result in assay [2] is on record as “no binding (tested: about 800 ng/well)”; in assay [3] it was “no binding”; in assay [4], “no binding”; in assay [5] it was “binds”; in assay [6], “no binding”; in assay [7], “binds”.

One may read the Kd as the concentration at which binding is half-saturated. A high value points to weaker binding. As usually defined, the koff is the rate constant with which the complex falls apart. In general, kon refers to the rate constant with which the complex forms. The low end stands for slow association, the high end for fast association.
